Data: US8383581B2, “Short-chain peptides as parathyroid hormone (PTH) receptor agonist” (Cadila Healthcare Limited, priority 2009, dated 2013)
Where no end group is shown, it is not given here. [ ]: non-standard residue; d: D form. The star is where a group is joined. Bip(2'-Et-4'-OMe) = CCc1cc(OC)ccc1-c1ccc(C[C@H](N)C(=O)O)cc1; Arg(NO2) = N=C(NCCC[C@H](N)C(=O)O)N[N+](=O)[O-]; αMePhe(2,6-F2) = C[C@](N)(Cc1c(F)cccc1F)C(=O)O; αMePhe(2-F) = C[C@](N)(Cc1ccccc1F)C(=O)O; hhPhe = N[C@@H](CCCc1ccccc1)C(=O)O; hArg = N=C(N)NCCCC[C@H](N)C(=O)O; hCit = NC(=O)NCCCC[C@H](N)C(=O)O; αMeF = C[C@](N)(Cc1ccccc1)C(=O)O; Cit = NC(=O)NCCC[C@H](N)C(=O)O; NMeM = CN[C@@H](CCSC)C(=O)O; Decanoyl = CCCCCCCCCC(=O)*; Ac6c = NC1(C(=O)O)CCCCC1; Nle = CCCC[C@H](N)C(=O)O; Orn = NCCC[C@H](N)C(=O)O; Ac5c = NC1(C(=O)O)CCCC1; Ac3c = NC1(C(=O)O)CC1; Aib = CC(C)(N)C(=O)O

T1: rat PTH-1R (rat PTHR endogenously expressed on UMR-106 rat osteosarcoma cells) (rat, UniProt P25961 27-591)
T1 sequence (looked up): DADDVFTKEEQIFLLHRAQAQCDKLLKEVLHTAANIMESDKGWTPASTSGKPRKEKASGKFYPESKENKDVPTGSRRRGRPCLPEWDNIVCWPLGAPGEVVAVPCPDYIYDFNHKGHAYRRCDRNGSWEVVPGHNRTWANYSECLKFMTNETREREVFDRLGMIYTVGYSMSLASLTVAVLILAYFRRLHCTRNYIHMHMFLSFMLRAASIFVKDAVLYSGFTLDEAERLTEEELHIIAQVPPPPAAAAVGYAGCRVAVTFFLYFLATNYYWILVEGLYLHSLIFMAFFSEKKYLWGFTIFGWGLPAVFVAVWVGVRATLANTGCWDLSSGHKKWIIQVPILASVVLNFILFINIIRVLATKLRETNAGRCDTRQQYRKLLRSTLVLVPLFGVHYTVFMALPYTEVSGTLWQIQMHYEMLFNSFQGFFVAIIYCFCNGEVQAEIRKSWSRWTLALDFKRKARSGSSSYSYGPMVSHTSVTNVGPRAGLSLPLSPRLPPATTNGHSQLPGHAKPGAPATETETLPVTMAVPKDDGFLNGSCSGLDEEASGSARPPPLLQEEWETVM

B1: PTH (1-34) (peptide)
peptide: SVSEIQLMHNLGKHLNSMERVEWLRKKLQDVHNF
B2: Seq. ID. 20 (peptide)
peptide: [Ac5c]V[Aib]EIQLMHQ[hArg][Aib]K[αMeF]
B3: Seq. ID. 470 (peptide)
peptide: [Aib]V[Aib]EIQ[αMePhe(2,6-F2)][Nle]HQ[hCit][Aib][Arg(NO2)][αMePhe(2,6-F2)]
B4: Seq. ID. 479 (peptide)
peptide: [Ac5c]V[Aib]EIQ[αMePhe(2,6-F2)][Nle]HQ[αMePhe(2,6-F2)]A[Cit][αMePhe(2-F)]
B5: Seq. ID. 486 (peptide)
peptide: [Aib]V[Aib]EIQ[αMePhe(2,6-F2)][Nle]HQ[αMePhe(2,6-F2)][Aib][Cit][αMePhe(2,6-F2)]
B6: Seq. ID. 501 (peptide)
peptide: [Aib]V[Aib]EIQ[αMePhe(2,6-F2)][Nle]HQ[αMePhe(2,6-F2)]A[Aib][αMePhe(2,6-F2)]
B7: Seq. ID. 514 (peptide)
peptide: [Aib]V[Aib]EIQ[αMePhe(2-F)][Nle]HQ[αMePhe(2,6-F2)][Aib][αMePhe(2,6-F2)][αMePhe(2,6-F2)]
B8: Seq. ID. 521 (peptide)
peptide: [Aib]V[Aib]EIQ[αMePhe(2-F)][Nle]HQ[αMePhe(2,6-F2)]A[Arg(NO2)][αMePhe(2-F)]
B9: Seq. ID. 540 (peptide)
peptide: [Ac5c]V[Aib]EIQ[αMePhe(2-F)][Nle]HQ[Aib][Aib][Cit][αMePhe(2-F)]
B10: Seq. ID. 553 (peptide)
peptide: [Aib]V[Aib]EIQ[αMePhe(2-F)][Nle]HQ[Aib]A[Aib][αMePhe(2-F)]
B11: Seq. ID. 598 (peptide)
peptide: [Aib]V[Aib]EIQ[αMePhe(2,6-F2)][Nle]HQ[Aib][Aib][Arg(NO2)][αMePhe(2,6-F2)]
B12: Seq. ID. 609 (peptide)
peptide: [Ac3c]V[Ac3c]EIQLMHQ[hArg]AK[Bip(2'-Et-4'-OMe)][hhPhe]
B13: Seq. ID. 23 (peptide)
peptide: [Aib]V[Ac6c]EIQL[Nle]HQ[hArg][Aib]K[αMeF]
B14: Seq. ID. 637 (peptide)
peptide: [Ac5c]V[Ac3c]EIQL[Nle]HQ[hArg]AK(Decanoyl)[Bip(2'-Et-4'-OMe)][hhPhe]
B15: Seq. ID. 647 (peptide)
peptide: [Aib]V[Aib]EIQL[Nle]HQ[hArg]AK[Bip(2'-Et-4'-OMe)]
B16: Seq. ID. 678 (peptide)
peptide: [Ac3c]V[Aib]EIQL[NMeM]HQ[hArg]AK(Decanoyl)[Bip(2'-Et-4'-OMe)]
B17: Seq. ID. 694 (peptide)
peptide: [Ac3c]V[Aib]EIQ[αMePhe(2,6-F2)][Nle]HQ[hArg]A[Arg(NO2)][Bip(2'-Et-4'-OMe)][hhPhe]
B18: Seq. ID. 712 (peptide)
peptide: [Ac3c]V[Aib]EIQ[αMePhe(2-F)][Nle]HQ[hArg]A[Arg(NO2)][αMePhe(2,6-F2)][hhPhe]
B19: Seq. ID. 733 (peptide)
peptide: [Ac5c]V[Aib]EIQL[Nle]HQ[hArg]A[Cit][Bip(2'-Et-4'-OMe)][hhPhe]
B20: Seq. ID. 751 (peptide)
peptide: [Ac5c]V[Aib]EIQL[Nle]HQ[Orn]A[Aib][Bip(2'-Et-4'-OMe)][hhPhe]
B21: Seq. ID. 781 (peptide)
peptide: [Ac5c]V[Aib]EIQL[Nle]HQ[hCit]A[Cit][Bip(2'-Et-4'-OMe)][hhPhe]
B22: Seq. ID. 799 (peptide)
peptide: [Ac5c]V[Aib]EIQL[Nle]HQ[αMePhe(2,6-F2)]A[Aib][Bip(2'-Et-4'-OMe)][hhPhe]
B23: Seq. ID. 813 (peptide)
peptide: [Ac5c]V[Aib]EIQ[αMePhe(2,6-F2)][Nle]HQ[hArg]A[Cit][Bip(2'-Et-4'-OMe)][hhPhe]
B24: Seq. ID. 30 (peptide)
peptide: [Aib]V[Ac5c]EIQ[αMePhe(2-F)][Nle]HQ[hArg]AK[αMeF]
B25: Seq. ID. 820 (peptide)
peptide: [Aib]V[Aib]EIQ[αMePhe(2,6-F2)][Nle]HQ[hArg][Aib][Cit][Bip(2'-Et-4'-OMe)][hhPhe]
B26: Seq. ID. 841 (peptide)
peptide: [Ac5c]V[Aib]EIQ[αMePhe(2,6-F2)][Nle]HQ[Orn][Aib][αMePhe(2,6-F2)][Bip(2'-Et-4'-OMe)][hhPhe]
B27: Seq. ID. 860 (peptide)
peptide: [Aib]V[Aib]EIQ[αMePhe(2,6-F2)][Nle]HQ[hCit]A[Cit][Bip(2'-Et-4'-OMe)][hhPhe]

The binders below were run against T1, rat PTH-1R (rat PTHR endogenously …) (assay: cell-based or functional assay).

Row | Binder | cAMP released with respect to control, 1 nM peptide, UMR-106 cells | cAMP released with respect to control, 10 nM peptide, UMR-106 cells | cAMP released with respect to control, 100 nM peptide, UMR-106 cells
1 | B1 | 41 percent of control | 97 percent of control | 100 percent of control
2 | B2 | 79 percent of control | 111 percent of control | 121 percent of control
3 | B3 | 36 percent of control | 88 percent of control | 116 percent of control
4 | B4 | 48 percent of control | 99 percent of control | 112 percent of control
5 | B5 | 34 percent of control | 82 percent of control | 104 percent of control
6 | B6 | 28 percent of control | 71 percent of control | 87 percent of control
7 | B7 | 19 percent of control | 64 percent of control | 80 percent of control
8 | B8 | 21 percent of control | 51 percent of control | 69 percent of control
9 | B9 | 16 percent of control | 57 percent of control | 75 percent of control
10 | B10 | 38 percent of control | 98 percent of control | 116 percent of control
11 | B11 | 38 percent of control | 79 percent of control | 119 percent of control
12 | B12 | 39 percent of control | 101 percent of control | 120 percent of control
13 | B13 | 12 percent of control | 41 percent of control | 69 percent of control
14 | B14 | 36 percent of control | 98 percent of control | 110 percent of control
15 | B15 | 56 percent of control | 101 percent of control | 126 percent of control
16 | B16 | 48 percent of control | 102 percent of control | 112 percent of control
17 | B17 | 19 percent of control | 64 percent of control | 80 percent of control
18 | B18 | 15 percent of control | 54 percent of control | 69 percent of control
19 | B19 | 36 percent of control | 98 percent of control | 110 percent of control
20 | B20 | 34 percent of control | 88 percent of control | 116 percent of control
21 | B21 | 16 percent of control | 57 percent of control | 75 percent of control
22 | B22 | 38 percent of control | 99 percent of control | 106 percent of control
23 | B23 | 82 percent of control | 109 percent of control | 110 percent of control
24 | B24 | 19 percent of control | 51 percent of control | 80 percent of control
25 | B25 | 14 percent of control | 48 percent of control | 66 percent of control
26 | B26 | 32 percent of control | 74 percent of control | 100 percent of control
27 | B27 | 22 percent of control | 50 percent of control | 70 percent of control
